According to PMC6477676, “Staufen2-mediated RNA recognition and localization requires combinatorial action of multiple domains”:

T1: mStau2 dsRBD1-2 F40A F157A (Mus musculus, UniProt Q8CJ67 8-181, F40A;F157A)
T1 sequence: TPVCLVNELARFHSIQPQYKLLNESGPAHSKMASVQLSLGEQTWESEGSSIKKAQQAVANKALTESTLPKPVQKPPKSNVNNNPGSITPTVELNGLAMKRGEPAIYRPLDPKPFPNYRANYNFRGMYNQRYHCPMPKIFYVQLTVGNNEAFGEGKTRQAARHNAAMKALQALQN

T2: mStau2 dsRBD1-2 F40A H169A (Mus musculus, UniProt Q8CJ67 8-181, F40A;H169A)
T2 sequence: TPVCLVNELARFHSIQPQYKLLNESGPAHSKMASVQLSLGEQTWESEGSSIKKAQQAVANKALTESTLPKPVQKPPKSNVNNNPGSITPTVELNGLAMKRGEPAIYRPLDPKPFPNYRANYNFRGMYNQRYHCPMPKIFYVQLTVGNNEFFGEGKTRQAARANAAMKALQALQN

T3: mStau2 dsRBD1-2 K59A (Mus musculus, UniProt Q8CJ67 8-181, K59A)
T3 sequence: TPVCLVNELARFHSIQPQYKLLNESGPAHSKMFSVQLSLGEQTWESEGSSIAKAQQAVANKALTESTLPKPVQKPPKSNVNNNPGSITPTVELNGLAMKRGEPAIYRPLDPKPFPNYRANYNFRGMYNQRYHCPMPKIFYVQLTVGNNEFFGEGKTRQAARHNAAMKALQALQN

T4: mStau2 dsRBD1-4 (Mus musculus, UniProt Q8CJ67 8-375)
T4 sequence: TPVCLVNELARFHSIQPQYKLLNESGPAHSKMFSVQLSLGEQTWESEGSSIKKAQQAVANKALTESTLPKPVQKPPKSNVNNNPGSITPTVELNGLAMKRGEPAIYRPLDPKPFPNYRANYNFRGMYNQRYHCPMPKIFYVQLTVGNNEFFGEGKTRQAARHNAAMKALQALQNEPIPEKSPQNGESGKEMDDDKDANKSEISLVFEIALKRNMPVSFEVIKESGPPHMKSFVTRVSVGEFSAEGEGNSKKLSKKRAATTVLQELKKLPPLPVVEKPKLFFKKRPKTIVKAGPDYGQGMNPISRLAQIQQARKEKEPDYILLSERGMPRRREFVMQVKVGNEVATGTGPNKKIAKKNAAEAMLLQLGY

T5: mStau2 dsRBD1-4 F40A H169A (Mus musculus, UniProt Q8CJ67 8-375, F40A;H169A)
T5 sequence: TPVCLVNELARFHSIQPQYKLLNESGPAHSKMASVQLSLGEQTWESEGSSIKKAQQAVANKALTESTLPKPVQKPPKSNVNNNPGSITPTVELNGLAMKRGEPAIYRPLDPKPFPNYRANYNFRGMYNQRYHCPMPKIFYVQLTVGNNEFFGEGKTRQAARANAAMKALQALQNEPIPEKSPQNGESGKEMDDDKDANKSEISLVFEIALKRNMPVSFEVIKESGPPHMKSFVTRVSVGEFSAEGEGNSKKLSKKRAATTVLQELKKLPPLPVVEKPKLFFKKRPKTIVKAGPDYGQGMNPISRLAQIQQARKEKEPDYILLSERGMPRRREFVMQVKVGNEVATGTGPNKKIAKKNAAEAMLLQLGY

B1: SRS2+5 (structured_RNA)
RNA: GGUAUAUACAUGCACAUGCAAUUUGUGUAUGUGUAUGUAUAUA
B2: SRS* (SRS3) (structured_RNA)
RNA: GGUAUGUGUGAAUGUGCAUGAAUAUAUAUAUAUAUGCAUAUAUAUAUUUGUAUAUGUUCACACAUG

Assays:
[1] = target: T1, mStau2 dsRBD1-2 F40A F157A; assay: SPR; no fit; SPR: HBS-EP (10 mM HEPES pH 7.4, 150 mM NaCl, 3 mM EDTA, 0.005% P20); EMSA: 5 nM RNA, protein buffer (40 mM Bis-Tris pH 7, 150 mM NaCl, 2 mM DTT presumed), 4% glycerol, 30 ug/mL yeast tRNA, RT; NMR: 150 mM NaCl, 20 mM Na phosphate pH 7.0, 5 mM DTT, 298 K; details: protein: recombinant, label: 5' 32P (EMSA), biotin (SPR)
[2] = target: T2, mStau2 dsRBD1-2 F40A H169A; assay: as above; details: protein: recombinant, label: 5' 32P (EMSA), biotin (SPR)
[3] = target: T3, mStau2 dsRBD1-2 K59A; assay: SPR; Hill n 1.2; SPR: HBS-EP (10 mM HEPES pH 7.4, 150 mM NaCl, 3 mM EDTA, 0.005% P20); EMSA: 5 nM RNA, protein buffer (40 mM Bis-Tris pH 7, 150 mM NaCl, 2 mM DTT presumed), 4% glycerol, 30 ug/mL yeast tRNA, RT; NMR: 150 mM NaCl, 20 mM Na phosphate pH 7.0, 5 mM DTT, 298 K; details: protein: recombinant; label: 5' 32P (EMSA); biotin (SPR); hairpin, 18 bp stem
[4] = target: T4, mStau2 dsRBD1-4; assay: SPR; Hill n 1.6; text says 357 nM; SPR: HBS-EP (10 mM HEPES pH 7.4, 150 mM NaCl, 3 mM EDTA, 0.005% P20); EMSA: 5 nM RNA, protein buffer (40 mM Bis-Tris pH 7, 150 mM NaCl, 2 mM DTT presumed), 4% glycerol, 30 ug/mL yeast tRNA, RT; NMR: 150 mM NaCl, 20 mM Na phosphate pH 7.0, 5 mM DTT, 298 K; details: protein: recombinant; tags: HisSUMO removed; label: 5' 32P (EMSA); biotin (SPR); hairpin, 18 bp stem
[5] = target: T5, mStau2 dsRBD1-4 F40A H169A; assay: SPR; two-site, transient; KDs resemble dsRBD3-4; SPR: HBS-EP (10 mM HEPES pH 7.4, 150 mM NaCl, 3 mM EDTA, 0.005% P20); EMSA: 5 nM RNA, protein buffer (40 mM Bis-Tris pH 7, 150 mM NaCl, 2 mM DTT presumed), 4% glycerol, 30 ug/mL yeast tRNA, RT; NMR: 150 mM NaCl, 20 mM Na phosphate pH 7.0, 5 mM DTT, 298 K; details: protein: recombinant, label: 5' 32P (EMSA), biotin (SPR)
[6] = imperfect hairpin, 26 bp with two bulges

Binder	binding result ([1]; hairpin, 18 bp stem)	binding result ([2]; hairpin, 18 bp stem)	Kd [3]	Kd [4]	binding result ([5]; hairpin, 18 bp stem)	binding result [1, 6]	binding result [2, 6]	binding result [5, 6]
B1	no binding	no binding	509 ± 136 nM	330 ± 148 nM	binds			
B2						no binding	no binding	binds
